Molecular target: biotinylated D-form of SARS-CoV-2 HR1 (SARS-CoV-2)

## D-form of EK1 (peptide)
  Kd: 32 nM

Reference: patent US20220119464A1
